Source: patent US20220411504A1
Values belong to the binder of their own block, whether it stands above or below them.

Columns and labels:
[1] = biological target: human Kallikrein-2 6-His protein (soluble hK2) (human) (UniProt P20151); assay: SPR, antibody captured by anti-Fc, soluble hK2 injected
HLA-B on cells (human) = HLA-B on cells (human) (UniProt P01889); assay: flow cytometry, IgG1 mAb on cells expressing HLA-B
HLA-C on cells (human) = HLA-C on cells (human) (UniProt P10321); assay: flow cytometry, IgG1 mAb on cells expressing HLA-C
HLA-A on cells (human) = HLA-A on cells (human) (UniProt P04439); assay: flow cytometry, IgG1 mAb on cells expressing HLA-A

B1: KL2B359 (scFv-LH-Fc) (Fc fusion, not shown: a dimerising Fc or GST)
scFv: EIVLTQSPATLSLSPGERATLSCRASESVEYFGTSLMHWYQQKPGQPPRLLIYAASNVESGIPARFSGSGSGTDFTLTISSVEPEDFAVYFCQQTRKVPYTFGGGTKVEIKGGSEGKSSGSGSESKSTGGSQVQLQESGPGLVKPSQTLSLTCTVSGNSITSDYAWNWIRQFPGKRLEWIGYISYSGSTTYNPSLKSRVTISRDTSKNQFSLKLSSVTAADTAVYYCATGYYYGSGFWGQGTLVTVSS
- Kd [1]: 0.7 to 1 nM

B2: MHGB689 (antibody, human IgG1, kappa, V domains shown)
VH: QVQLQQSGPGLVKPSQTLSLTCVISGDSVSSNRAAWNWIRQSPSRGLEWLGRTYYRSKWYNDYAVSVKSRITINSDTSKNQISLQLNSVTPEDTAVYYCARVRPGIPFDYWGQGTTVTVSS
VL: DIQMTQSPDSLAVSLGERATINCESSQSVLFSSNKKNYLAWYQQKPGQPPKLLIYWASTRESGVPDRFSGSGSGTDFTLTINRLQAEDVAVYYCQQYNSTPWTFGQGTKVEIKR
- GeoMean fluorescence (maximum value) (HLA-B on cells (human)): 5790
- GeoMean fluorescence (maximum value) (HLA-C on cells (human)): 266
- GeoMean fluorescence (maximum value) (HLA-A on cells (human)): 2540

B5: KL2B413 (scFv-LH-Fc) (Fc fusion, not shown: a dimerising Fc or GST)
scFv: EIVLTQSPSFLSASVGDRVTITCRASQGISSYLSWYQQKPGKAPKLLIYATSTLQSGVPSRFSGSGSGTEFTLTISSLQPEDFATYYCQQLNSYPRTFGQGTKVEIKGGSEGKSSGSGSESKSTGGSEVQLVESGGGLVQPGGSLRLSCAASGFTFSSYWMTWVRQAPGKGLEWVANIKQDGSERYYVDSVKGRFTISRDNAKNSLYLQMNSLRAEDTAVYYCARDQNYDILTGHYGMDVWGQGTTVTVSS
- Kd [1]: 34.3 nM

B6: KL2B30 (antibody, human IgG4 S228P, kappa, F234A L235A, V domains shown)
VH: QVQLQESGPGLVKPSETLSLTCTVSGGSISSYYWSWIRQPPGKGLEWIGYIYYSGSTNYNPSLKSRVTISVDTSKNQFSLKLSSVTAADTAVYYCAGTTIFGVVTPNFYYGMDVWGQGTTVTVSS
VL: DIQMTQSPSFLSASVGDRVTITCRASQGISSYLAWYQQKPGKAPKFLIYAASTLQSGVPSRFSGSGSGTEFTLTISSLQPEDFATYYCQQLNSYPLTFGGGTKVEIKR
- Kd [1]: 0.46 nM

The remaining lines, values ahead:

- Kd [1]: 0.08 nM
B3: KL2B53 (antibody, human IgG4 S228P, kappa, F234A L235A, V domains shown)
VH: EVQLVESGGGVVQPGRSLRLSCVASGFTFSSYDIHWVRQAPGKGLEWVAIISYDGSKKDYTDSVKGRFTISRDNSKNTLYLQMDSLRVEDSAVYSCARESGWSHYYYYGMDVWGQGTMVTVSS
VL: DIVMTQSPSSLSASVGDRVTITCRASQDISNYLAWYQQKPGKVPKFLIYAASTLHSGVPSRFSGSGSGTDFTLTISSLQPEDVATYYCQKYNSAPYTFGQGTRLEIKR

- Kd [1]: 0.04 nM
B4: KL2B242 (antibody, human IgG4 S228P, lambda, F234A L235A, V domains shown)
VH: QVQLQESGPGLVKPSETLSLTCTVSGGSISSYYWSWLRQPAGSGLEWIGRLYVSGFTNYNPSLKSRVTLSLDPSRNQLSLKLSSVTAADTAVYYCAGDSGNYWGWFDPWGQGTLVTVSS
VL: SYELTQPPSVSVSPGETASITCSGDQLGENYACWYQQKPGQSPVLVIYQDSKRPSGIPERFSGSNSGNTATLTISGTQALDEADYYCQAWDNSIVVFGGGTKLTVLG
